Experimental data: PMC13033339

What was measured:
Test in all cases: cryo-EM structure; genome-packed Douge virions purified from M. smegmatis lysate (PEG, CsCl gradient), vitrified at 4 °C; capsid, connector-vertex, tail tube, baseplate and central fiber reconstructed separately (2.18-4.26 Å) and joined in a composite map; the proteins stood in the assembled virion
[1] = target: adaptor protein, gp9 of mycobacteriophage Douge (mycobacteriophage Douge)
[2] = target: baseplate hub protein (BHP), gp18 of mycobacteriophage Douge (mycobacteriophage Douge)
[3] = target: capsid cement protein (CCP), gp113 of mycobacteriophage Douge (mycobacteriophage Douge)
[4] = target: central fiber protein (CFP), gp20 of mycobacteriophage Douge (mycobacteriophage Douge)
[5] = target: distal tail protein (DTP), gp17 of mycobacteriophage Douge (mycobacteriophage Douge)
[6] = target: portal protein, gp5 of mycobacteriophage Douge (mycobacteriophage Douge)
[7] = target: stopper protein, gp10 of mycobacteriophage Douge (mycobacteriophage Douge)
[8] = target: tail tube protein (TTP), gp13 of mycobacteriophage Douge (mycobacteriophage Douge)
[9] = target: tape measure protein (TMP), gp16 of mycobacteriophage Douge (mycobacteriophage Douge)
[10] = target: terminator protein, gp12 of mycobacteriophage Douge (mycobacteriophage Douge)

Substance: adaptor protein, gp9 of mycobacteriophage Douge (natural protein)
- stoichiometry N [1]: 12

Substance: baseplate hub protein (BHP), gp18 of mycobacteriophage Douge (natural protein)
- stoichiometry N [2]: 3

Substance: capsid cement protein (CCP), gp113 of mycobacteriophage Douge (natural protein)
- stoichiometry N [3]: 2

Substance: central fiber protein (CFP), gp20 of mycobacteriophage Douge (natural protein)
- stoichiometry N [4]: 3

Substance: distal tail protein (DTP), gp17 of mycobacteriophage Douge (natural protein)
- stoichiometry N [5]: 6

Substance: portal protein, gp5 of mycobacteriophage Douge (natural protein)
- stoichiometry N [6]: 12

Substance: stopper protein, gp10 of mycobacteriophage Douge (natural protein)
- stoichiometry N [7]: 6

Substance: tail tube protein (TTP), gp13 of mycobacteriophage Douge (natural protein)
- stoichiometry N [8]: 6

Substance: tape measure protein (TMP), gp16 of mycobacteriophage Douge (natural protein)
- stoichiometry N [9]: 3

Substance: terminator protein, gp12 of mycobacteriophage Douge (natural protein)
- stoichiometry N [10]: 6
